# Bridge positions count the residues as written; N and C are the ends. Ends that are not written are not given here.
# T1: human IL-2Rα subunit (human, UniProt P01589 22-213, limits assumed)
# T1 construct: also called CD25
# T1 sequence (looked up): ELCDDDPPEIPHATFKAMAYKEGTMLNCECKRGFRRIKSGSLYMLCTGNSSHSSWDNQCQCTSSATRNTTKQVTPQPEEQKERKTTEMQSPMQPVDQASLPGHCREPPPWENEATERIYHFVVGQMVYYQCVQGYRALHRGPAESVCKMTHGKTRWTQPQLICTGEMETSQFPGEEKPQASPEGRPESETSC
# B1: SEQ ID NO 295 (peptide)
# peptide: LSVCSCPPGQLYCMVE
# modifications: disulfide (positions not given here); also: disulfide between two of the three Cys, which not given here
# B2: SEQ ID NO 304 (peptide)
# peptide: LSVCSCPPGQLYCMVE
# modifications: disulfide (positions not given here); also: disulfide between two of the three Cys, which not given here
# Biological target: T1, human IL-2Rα subunit
row,Binder,IC50 [µM]
1,RYCSPLIPGSALGCPR [SEQ ID NO 272],< 100
2,IRCRLDPPGSYKTCVF (disulfide 3-14 (inferred)) [SEQ ID NO 273],< 100
3,RGVICNHAGCRIWYG [SEQ ID NO 274],< 100
4,TTQSCTLRYCWLLQ (disulfide 5-10 (inferred)) [SEQ ID NO 275],< 100
5,WWISCLRDLRCLEYF [SEQ ID NO 276],< 100
6,RHACKTWYRMCIVS [SEQ ID NO 277],< 100
7,AVSCSRLTGRCHSL [SEQ ID NO 278],< 100
8,WVACNRVTGSCRPI [SEQ ID NO 279],< 100
9,SHGVCCTQSSCRSCR [SEQ ID NO 280],< 100
10,WVACNRLSGCCRPI [SEQ ID NO 281],< 100
11,HTVCCQDWGCRSCSG [SEQ ID NO 282],< 100
12,MACCTPRGCRPC [SEQ ID NO 283],< 100
13,RSVCCSSYGCRACFG [SEQ ID NO 284],< 100
14,CKLTCTSSTCSCVF [SEQ ID NO 285],< 100
15,CMLKCTNAICECIF [SEQ ID NO 286],< 100
16,CRVWCNQAECMCIF [SEQ ID NO 287],< 100
17,WVICSAVGCRPF (disulfide 4-9 (inferred)) [SEQ ID NO 31],< 100
18,WVICSALGCRPF [SEQ ID NO 35],< 100
19,SRCSFDVTKQECVF (disulfide 3-12 (inferred)) [SEQ ID NO 288],< 100
20,LECQPYRGPLYYCQD [SEQ ID NO 289],< 100
21,SICCTPQLCHSCDG [SEQ ID NO 290],< 100
22,TTCCTSEGCHKCITL [SEQ ID NO 291],< 100
23,CVACSSDGCSPIIC [SEQ ID NO 292],< 100

row,Binder,IC50 [µM]
1,AICSEDEGGELCCWH [SEQ ID NO 293],< 100
2,HEICCGPPGCHSCSVT [SEQ ID NO 294],< 100
3,B1,< 100
4,STWCCLHPGVGECQAV [SEQ ID NO 296],< 100
5,VTQCFDGPGSFRCCYQ [SEQ ID NO 297],< 100
6,RQCNCLSPGELVNCQQ [SEQ ID NO 298],< 100
7,MVSCTDLGCVVVGGG [SEQ ID NO 299],< 100
8,VVHCLQSGCYSVGSG [SEQ ID NO 300],< 100
9,TIKCGSSGWCWVEAG [SEQ ID NO 301],< 100
10,MVSCTDLGCVVVGGG [SEQ ID NO 302],< 100
11,HEICCGPPGCHSCSVT [SEQ ID NO 303],< 100
12,B2,< 100
13,STWCCLHPGVGECQAV [SEQ ID NO 305],< 100
14,VTQCFDGPGSFRCCYQ [SEQ ID NO 306],< 100
15,RQCNCLSPGELVNCQQ [SEQ ID NO 307],< 100
16,WVICSALGCKAW [SEQ ID NO 36],< 100
17,YVLCSNRNGCRP [SEQ ID NO 41],< 100
18,WAYDWSCFRRRL [SEQ ID NO 3],< 100
19,YVTCRWGYGCTR [SEQ ID NO 42],< 100
20,WVACSWDHGCRS (disulfide 4-10 (inferred)) [SEQ ID NO 43],< 100
21,HVICSVNGGCRG [SEQ ID NO 44],< 100
22,EQFCLVSDPMACWSL (disulfide 4-12 (inferred)) [SEQ ID NO 50],< 100
23,KYWCLRSEPDACFAT (disulfide 4-12 (inferred)) [SEQ ID NO 51],< 100

row,Binder,IC50 [µM]
1,RVYCLASEPNSCWST [SEQ ID NO 52],< 100
2,TKLCLKSEPQACWSM [SEQ ID NO 53],< 100
3,FLHWPVYFCQVM [SEQ ID NO 4],< 100
4,KLFCLRSGDRACWVV (disulfide 4-12 (inferred)) [SEQ ID NO 60],< 100
5,RRFCLRSEPAACWFV [SEQ ID NO 67],< 100
6,RSCNRYGIWGHCDT [SEQ ID NO 72],< 100
7,FLPWPVYFSQVL [SEQ ID NO 5],< 100
8,IKCRVLEAGTPCVF (disulfide 3-12 (inferred)) [SEQ ID NO 73],< 100
9,IRCRYEKQSGICLF [SEQ ID NO 74],< 100
10,LRCRLDTRDGTCRF [SEQ ID NO 75],< 100
11,MRCILSPSREHCLF [SEQ ID NO 76],< 100
12,NHCTMDWRLGACIF [SEQ ID NO 77],< 100
13,SGCRLSLLDGHCYF [SEQ ID NO 78],< 100
14,SKCVYDYNFGTCIF [SEQ ID NO 79],< 100
15,SRCVMSLQLGACIF [SEQ ID NO 80],< 100
16,TRCTVIGPPWSCRF [SEQ ID NO 81],< 100
17,VFCIGYGAAQSCHS [SEQ ID NO 82],< 100
18,FVEWQAYFSQMM [SEQ ID NO 6],< 100
19,VRCLYDSITRTCTF [SEQ ID NO 83],< 100
20,VSCKIDRRSGSCLF (disulfide 3-12 (inferred)) [SEQ ID NO 84],< 100
21,VSCRFRPDLGFCIF [SEQ ID NO 85],< 100
22,DRCDTRTWGYYCWI [SEQ ID NO 86],< 100
